In US20190010237A1 (AbbVie / Abbott, published 2019):

T1: Human PRLR expressed on HEK-293 cells (human, UniProt P16471 25-622)
T1 construct: also called PRLR-expressing HEK-293 cells; HEK293/Human PRLR
T1 sequence: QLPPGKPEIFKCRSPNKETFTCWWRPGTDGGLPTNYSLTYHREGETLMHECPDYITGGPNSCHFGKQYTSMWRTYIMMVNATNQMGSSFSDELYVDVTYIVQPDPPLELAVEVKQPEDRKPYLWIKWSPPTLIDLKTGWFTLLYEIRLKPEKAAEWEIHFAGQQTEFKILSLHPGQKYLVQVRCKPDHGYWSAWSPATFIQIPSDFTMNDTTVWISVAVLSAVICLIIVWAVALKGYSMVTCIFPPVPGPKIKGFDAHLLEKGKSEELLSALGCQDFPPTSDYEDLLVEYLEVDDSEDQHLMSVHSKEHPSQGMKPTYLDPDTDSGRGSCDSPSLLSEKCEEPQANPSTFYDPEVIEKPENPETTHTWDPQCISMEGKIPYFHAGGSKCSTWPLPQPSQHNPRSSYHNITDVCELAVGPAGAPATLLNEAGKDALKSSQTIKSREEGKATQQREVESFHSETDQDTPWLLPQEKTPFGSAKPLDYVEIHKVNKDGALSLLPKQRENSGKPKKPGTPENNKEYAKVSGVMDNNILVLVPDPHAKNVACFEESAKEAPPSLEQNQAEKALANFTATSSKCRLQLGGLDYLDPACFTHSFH

T2: PRLR (prolactin receptor, as named in the kinetics and crystallography paragraph) (UniProt P16471 25-234, limits assumed)
T2 construct: The paragraph says only 'PRLR'
T2 sequence (looked up): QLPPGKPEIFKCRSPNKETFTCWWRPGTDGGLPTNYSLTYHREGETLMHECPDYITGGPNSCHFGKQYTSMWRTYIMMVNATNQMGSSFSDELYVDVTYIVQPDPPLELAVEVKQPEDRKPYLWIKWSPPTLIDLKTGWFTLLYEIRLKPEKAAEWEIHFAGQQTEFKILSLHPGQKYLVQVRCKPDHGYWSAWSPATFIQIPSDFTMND


Columns and labels:
[1] = target: T1, Human PRLR expressed on HEK-293 cells; assay: FACS titration on PRLR-expressing HEK-293 cells (293hPRLR), MFI against Ab (nM)
[2] = target: T2, PRLR (prolactin receptor, as named in …); assay: kinetic measurement, method not named

Binder	EC50 [1] [nM]	Kd [2] [nM]	koff [2] [s⁻¹]
h16e anti-PRLR antibody (antibody, human IgG1, kappa) heavy: not shown light: DIQMTQSPSSLSASVGDRVTITCRASENIYSYLAWYQQKPGKPPKLLVYNAKTLAEGVPSRFSGSGSGTDFTLTISSLQPEDFATYYCQHHYATPFTFGQGTKLEIKRTVAAPSVFIFPPSDEQLKSGTASVVCLLNNFYPREAKVQWKVDNALQSGNSQESVTEQDSKDSTYSLSSTLTLSKADYEKHKVYACEVTHQGLSSPVTKSFNRGEC	0.5	–	–
anti-PRLR antibody LFA-102 (Novartis) (antibody, V domains shown) VH: EVQLVESGGGLVQPGGSLRLSCAVSGFTFSSYGMSWVRQAPGKRLEWVATVSSGGTYTYYPDSVKGRFTISRDNSKNTLYLQMNSLRAEDTAMYYCARHRGNYYATYYYAMDYWGQGTLVTVSS VL: DIVLTQSPDSLAVSLGERATINCKASKSVSTSGYTYMHWYQQKPGQPPKLLIYLASNRESGVPDRFSGSGSGTDFTLTISPVQAEDVATYYCQHSGELPPSFGQGTKLEIKR	–	1.3	0.0011
h16f humanized anti-PRLR antibody (antibody, human IgG1, kappa, Humanized IgG1; also called antibody h16f; parental h16f) heavy: not shown light: DIQMTQSPSSVSASVGDRVTITCKASQYVGTAVAWYQQKPGKSPKLLIYSASNRYTGVPSRFSDSGSGTDFTLTISSLQPEDFATYFCQQYSSYPWTFGGGTKVEIKRTVAAPSVFIFPPSDEQLKSGTASVVCLLNNFYPREAKVQWKVDNALQSGNSQESVTEQDSKDSTYSLSSTLTLSKADYEKHKVYACEVTHQGLSSPVTKSFNRGEC	0.29	0.46	0.000623
